Source: paper PMC9713717

Biological target: T1, human NKCC1 (sodium-potassium-chloride transporter NKCC1, SLC12A2) (human), P55011
T1 chain: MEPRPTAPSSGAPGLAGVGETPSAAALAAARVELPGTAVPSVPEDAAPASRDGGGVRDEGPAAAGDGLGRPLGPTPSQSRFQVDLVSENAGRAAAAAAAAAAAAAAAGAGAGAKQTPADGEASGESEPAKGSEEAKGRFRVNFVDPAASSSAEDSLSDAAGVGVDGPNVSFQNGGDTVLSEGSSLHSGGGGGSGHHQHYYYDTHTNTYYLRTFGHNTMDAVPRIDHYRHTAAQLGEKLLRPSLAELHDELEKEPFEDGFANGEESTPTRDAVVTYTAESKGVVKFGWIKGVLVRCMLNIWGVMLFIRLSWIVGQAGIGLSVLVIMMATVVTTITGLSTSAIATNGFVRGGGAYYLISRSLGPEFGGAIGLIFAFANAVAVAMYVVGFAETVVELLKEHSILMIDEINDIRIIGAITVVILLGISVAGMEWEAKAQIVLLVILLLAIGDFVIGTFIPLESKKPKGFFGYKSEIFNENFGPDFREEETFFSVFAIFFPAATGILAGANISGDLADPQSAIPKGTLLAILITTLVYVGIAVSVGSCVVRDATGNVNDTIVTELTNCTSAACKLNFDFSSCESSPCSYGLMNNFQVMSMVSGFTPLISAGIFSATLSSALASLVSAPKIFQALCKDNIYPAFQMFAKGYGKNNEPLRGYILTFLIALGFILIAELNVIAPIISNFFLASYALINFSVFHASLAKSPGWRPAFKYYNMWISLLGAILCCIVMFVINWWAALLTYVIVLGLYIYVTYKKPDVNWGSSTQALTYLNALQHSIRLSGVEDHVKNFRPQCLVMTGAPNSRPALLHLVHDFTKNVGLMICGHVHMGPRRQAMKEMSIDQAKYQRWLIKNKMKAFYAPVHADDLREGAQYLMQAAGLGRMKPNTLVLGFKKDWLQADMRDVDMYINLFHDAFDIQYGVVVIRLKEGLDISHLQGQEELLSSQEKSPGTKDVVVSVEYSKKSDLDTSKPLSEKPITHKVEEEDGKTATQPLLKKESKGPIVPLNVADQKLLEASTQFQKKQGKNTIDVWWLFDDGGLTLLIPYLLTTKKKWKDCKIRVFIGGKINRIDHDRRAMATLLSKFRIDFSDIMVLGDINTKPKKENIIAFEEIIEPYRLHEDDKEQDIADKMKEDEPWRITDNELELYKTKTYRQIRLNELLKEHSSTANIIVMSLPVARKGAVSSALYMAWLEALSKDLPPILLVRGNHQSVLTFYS
Assay: cryo-EM structure
Conditions: remark: other sources report otherwise

stoichiometry N: 2
B1: human NKCC1 (sodium-potassium-chloride transporter NKCC1, SLC12A2), P55011 1-1212 (natural protein)
chain: T1 chain
